Assays:
Assay in all cases: IEDB peptide-MHC binding, purified MHC/competitive/radioactivity; ≥ and ≤ were set here for values at or beyond the usual limits of such assays
Details in all cases: source organism: Bordetella pertussis
HLA-B*44:03 = molecular target: HLA-B*44:03
HLA-B*53:01 = molecular target: HLA-B*53:01
HLA-B*35:01 = molecular target: HLA-B*35:01
HLA-B*07:02 = molecular target: HLA-B*07:02
HLA-B*57:01 = molecular target: HLA-B*57:01
HLA-A*02:01 = molecular target: HLA-A*02:01

Q: Which IC50 (HLA-B*44:03) does the source give for AEHGEVSIQ here?
A: 2.88 µM

Q: How did the IC50 (HLA-B*53:01) turn out when GGVPGGAVP was run?
A: 26.7 µM

Q: Which IC50 (HLA-B*44:03) does the source give for KEAATIVAA here?
A: 15 µM

Q: KPAPTAPPM was tested. Which IC50 (HLA-B*35:01) did it give?
A: 0.019 µM

Q: Which IC50 (HLA-B*07:02) does the source give for KDYRDKDGG here?
A: 69.6 µM

Q: Which IC50 (HLA-B*57:01) does the source give for YLRQITPGW here?
A: 1.54 µM

Q: With DATFETYAL as the sequence, how does the IC50 (HLA-B*53:01) read?
A: 4.9 µM

Q: How did the IC50 (HLA-B*53:01) turn out when EPQAELAVF was run?
A: 4.52 µM

Q: Which IC50 (HLA-B*07:02) does the source give for FVRDGQSVI here?
A: 5.56 µM

Q: With GKLPKPVTV as the sequence, how does the IC50 (HLA-A*02:01) read?
A: 69.4 µM

Q: How did the IC50 (HLA-B*44:03) turn out when AEVKVGYRA was run?
A: 2.36 µM

Q: KPAPQPGPQ was tested. Which IC50 (HLA-B*07:02) did it give?
A: 31.7 µM

Q: Which IC50 (HLA-B*44:03) does the source give for SESHNFHAS here?
A: 32.7 µM

Q: VALASQARW was tested. Which IC50 (HLA-B*57:01) did it give?
A: 0.188 µM

Q: LPVRGVALV was tested. Which IC50 (HLA-B*35:01) did it give?
A: 69.9 µM

Q: And the IC50 (HLA-B*53:01)?
A: ≥ 78.2 µM

Q: PPRPVAAQV was tested. Which IC50 (HLA-B*07:02) did it give?
A: 17.8 µM

Q: Which IC50 (HLA-B*53:01) does the source give for GAVPGGAVP here?
A: 69.9 µM

Q: How did the IC50 (HLA-B*35:01) turn out when FAILSSTTE was run?
A: 69.9 µM

Q: What about the IC50 (HLA-B*53:01) of the same sequence?
A: 47.1 µM

Q: Which IC50 (HLA-B*53:01) does the source give for ESYSESHNF here?
A: 6.27 µM
